Literature values, collected in article PMC6323488.

Molecular target: EGFR (Homo sapiens) (UniProt P00533)

CTGF (from UniProt P29279)
Kd: 126 nM
